This note sets out measurements from PMC4003248 (The Journal of Cell Biology, 2014).

Where a chain is given by its changes, count along the chain named. Names and notes keep the numbering of the source.

The target of assay [1] is RILP (Rab7-interacting lysosomal protein) 1-185 (UniProt Q96NA2). Put plainly: GST-RILP 1-185 pull-down from cell lysate. The conditions noted are these: reference: GFP-LIC1 wild type; sites T213.
For assay [2], the target named is adenovirus serotype 5 hexon capsid subunit (Ad5 (adenovirus serotype 5), UniProt P04133 1-952). Put plainly: pull-down.
Chain of adenovirus serotype 5 hexon capsid subunit (P04133 whole entry): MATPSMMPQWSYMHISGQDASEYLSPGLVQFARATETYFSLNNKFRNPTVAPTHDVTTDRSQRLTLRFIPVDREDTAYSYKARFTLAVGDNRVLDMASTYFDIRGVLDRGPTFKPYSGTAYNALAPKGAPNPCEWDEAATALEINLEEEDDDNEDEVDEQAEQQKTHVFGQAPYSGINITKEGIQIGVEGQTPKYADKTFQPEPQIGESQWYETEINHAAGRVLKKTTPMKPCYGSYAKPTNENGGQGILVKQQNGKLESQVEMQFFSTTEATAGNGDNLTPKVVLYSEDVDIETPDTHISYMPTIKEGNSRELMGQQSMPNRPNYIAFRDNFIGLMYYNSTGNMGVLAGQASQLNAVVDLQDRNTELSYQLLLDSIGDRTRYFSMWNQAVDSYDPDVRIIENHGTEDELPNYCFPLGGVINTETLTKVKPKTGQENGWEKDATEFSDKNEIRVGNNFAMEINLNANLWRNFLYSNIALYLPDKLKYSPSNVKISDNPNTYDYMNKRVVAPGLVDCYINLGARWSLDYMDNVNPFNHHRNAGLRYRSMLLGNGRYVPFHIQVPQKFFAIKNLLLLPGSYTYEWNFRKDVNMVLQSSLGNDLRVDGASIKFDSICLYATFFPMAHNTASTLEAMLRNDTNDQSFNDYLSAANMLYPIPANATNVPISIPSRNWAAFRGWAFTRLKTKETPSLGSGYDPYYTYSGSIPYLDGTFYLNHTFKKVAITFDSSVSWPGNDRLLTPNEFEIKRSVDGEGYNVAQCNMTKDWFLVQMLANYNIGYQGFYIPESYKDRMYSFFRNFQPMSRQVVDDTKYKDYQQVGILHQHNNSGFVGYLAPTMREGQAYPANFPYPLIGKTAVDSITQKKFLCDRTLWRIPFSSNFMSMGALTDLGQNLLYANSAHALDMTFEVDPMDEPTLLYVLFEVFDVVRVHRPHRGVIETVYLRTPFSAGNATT

As for “dynein light intermediate chain 1 (LIC1) (from UniProt Q9QXU8) GFP-LIC1-T213A”, the “binding against the reference” value in assay [1] is “stronger”.

B1: bacterially expressed LIC1-T213D (natural protein, rat, UniProt Q9QXU8 1-523, looked up)
chain: MAAVGRVGSFGSSPPGLASTYASGPLANELASGSGGPAAGDDEDGQNLWSRILREVSTRSRSKLPTGKNVLLLGEDGAGKTSLIRRIQGIEEYKKGRGLEYLYLNVHDEDRDDQTRCNVWILDGDLYHKGLLKFSLDALSLRDTLVMLVVDMSKPWTALDSLQKWASVVREHVDKLKIPPEEMKEMEQKLIRDFQEYVEPGEDFPASPQRRADAAQEDRDDSVVLPLGADTLTHNLGLPVLVVCTKCDAISVLEKEHDYRDEHFDFIQSHIRKFCLQYGAALIYTSVKENKNIDLVYKYIVQKLYGFPYKIPAVVVEKDAVFIPAGWDNDKKIGILHENFQTLKIEDNFEDIITKPPVRKFVHEKEIMAEDDQVFLMKLQSLLAKQPPTAAGRPVDASPRVPGGSPRTPNRSVSSNVASVSPIPAGSKKIDPNMKAGATSEGVLANFFNSLLSKKTGSPGGPGVGGSPGGGAAGASTSLPPSAKKSGQKPVLSDVHAELDRITRKPASVSPTTPPSPTEGEAS
As for B1, the binding result in assay [2] was “binds”.

B2: bacterially expressed full-length LIC1 phosphorylated with PKA catalytic subunit (natural protein, rat, UniProt Q9QXU8 1-523, looked up)
chain: B1 chain with D213T
modifications: phosphorylated by PKA; T213 identified as the major PKA site
On to B2, for which, in assay [2], the binding result was “binds”.

B3: bacterially expressed full-length IC1A phosphorylated with PKA catalytic subunit (natural protein, rat, UniProt Q63100 1-643, looked up)
chain: MSDKSDLKAELERKKQRLAQIREEKKRKEEERKKKEADMQQKKEPVPDDSDLDRKRRETEALLQSIGISPEPPLVQPLHFLTWDTCYFHYLVPTPMSPSSKSVSTPSEAGSQDDLGPLTRTLQWDTDPSVLQLQSDSELGRRLNKLGVSKVTQVDFLPREVVSYSKETQTPLATHQSEEDEEDEEMVEPKVGHDSELENQDKKQETKEAPPRELTEEEKQQILHSEEFLIFFDRTIRVIERALAEDSDIFFDYSGRELEEKDGDVQAGANLSFNRQFYDEHWSKHRVVTCMDWSLQYPELMVASYSNNEDAPHEPDGVALVWNMKFKKTTPEYVFHCQSSVMSVCFARFHPNLVVGGTYSGQIVLWDNRSHRRTPVQRTPLSAAAHTHPVYCVNVVGTQNAHNLITVSTDGKMCSWSLDMLSTPQESMELVYNKSKPVAVTGMAFPTGDVNNFVVGSEEGTVYTACRHGSKAGIGEVFEGHQGPVTGINCHMAVGPIDFSHLFVTSSFDWTVKLWTTKHNKPLYSFEDNADYVYDVMWSPVHPALFACVDGMGRLDLWNLNSDTEVPTASVAIEGAYALNRVRWAQGGKEVAVGDSEGRIWIYDVGELAVPHNDEWTRFARTLVEIRANRADSEEEGAVELAA
modifications: phosphorylated by PKA (the paper names IC1-T59 as the sole PKA site)
Take B3: in assay [2], the binding result is recorded as “binds”.
